From patent US4327178A, “Urinary kallikrein assay: specific substrates and assay method” (University of Miami, priority 1981, dated 1982)

Test system: T1, N=C(N)NCCC[C@H](NC(=O)[C@H](Cc1ccccc1)NC(=O)[C@@H]1CCCN1)C(=O)NCc1ccccc1
T1 construct: dialyzed or gel-filtered human urine in the general A1 assay
Test: Km and Vmax of substrates with purified human urinary kallikrein (Lineweaver-Burk double reciprocal plot)
Format: biochemical
Conditions: other: 62.5 ng purified enzyme, 0.05 M tris-HCl pH 9.5, 37° C., 15 minutes
Description: The double reciprocal plot method of H. Lineweaver and D. Burk (J.Am.Chem.Soc. 56, 658 (1934)) was used to estimate Km and Vmax for these substrates. Purified human urinary kallikrein prepared as described by Oza, N. B. and Ryan, J., supra, was used in this study. Reactions were conducted at 37° C. for 15 minutes with 62.5 ng of enzyme and the indicated amount of substrate, in 0.05 M tris-HCl pH 9.5. Reactions were terminated by the addition of a nine-fold excess of 0.1 N NaOH. The ^3 H-labeled product was separated from substrate by extraction with an equal volume (1 ml) of toluene. A 0.5 ml aliquot of the toluene phase was transferred to a scintillation vial containing a toluene-based scintillation fluid and counted. Results for H-ProPheArg-[^3 H]-benzylamide are shown in FIG. 1, and for H-ProPheArg-[^3 H]anilide in FIG. 2. The units of l/v were nmol^-1 min. Units of l/S were μmole^-1.liter.

## human urinary kallikrein (Homo sapiens)
  Km: 3.0 µM
  Vmax: 0.88 mmol/min/mg
